assay: soluble on expression in E. coli; label from the status in PepcDB or PDB records

Sequence | soluble on expression in E. coli
MSLEIKNVSKQIGDRKILDNISLTIDKGSLVVLIGSSGCGKTTTLKLINKLITPTSGEIFINGKSLAKENPIELRRNIGYVIQNNGLFPHLTIKENIELIPRLKKGKDVEKIEKTTLDLLNMVGLDPEIYLNKYPSELSGGQQQRVGFARAFATDAEIILMDEPFSALDPITRTSLQEELFNIQEELKKTIIFVTHDMDEALKIADKICIMNGGKIAQYDTPENILRNPANDFVRDFIGSDRVWNNPDFIKAKDIMIKNPVSVKGARTILQGIEIMRSNKVDSLLVIDKENVLKGIVTFKDIKITNEKSRALSEIMSENPLRVNEDDSLVDILTVMNENSVGFIPVVNSEEKLVGLITRSSLLSILSDQFLDMEVNIFEEGHHHHHH | soluble
MSLEKVGTIGVAIPSATHGFMGGLNFHAQDTIKRLQQVYPQLDFVLATAGNAGKMVNDIEDMVATRNISALVVLPFESEPLTSPVQAVKEAGIWVTVVDRGLSVEGIEDLYVAGDNPGFGRVAGEYFAQHLESGKKIVVLRGIPTTLDNERVEAFTAAIEGSGIEVLDMQHGNWNRDDAFNVMQDFLSKYPQIDAVWAADDDMAIGAMEAIAQAGRTEEMWVMGGAGMKEIIRRIADGDPQLPANVTYPPAQISTAIELTALKLVSSTPVSGRFIIGSQLVTPENAEQFYFPDSEGHHHHHH | soluble
MSLENKENLVVIDLAIAEDSIQKKNIVYDKNGQNHFDVISAFIKSIRGSDPDATLYWLANMVEAGEDPNFIFRRLLISACEDIGLADPNAIVVVQSCCDAFDRVGFPEGLFFLSQASLYLAISPKSNSTKSIFKAMEAIKATNVSLVPNHLKNNASNYLNPHNYQGKWLQQEYLPTDLQGIKFWKPKDSGWEKNKYEDLPKKQKSEGHHHHHH | soluble
MSLENYLEEELIIGGIEINYLYVCKTKLWYFVRGITMEQESDFVDLGKFLHEKSYFGEEKEVQIGSIKIDFIKKRDVIEIHEVKRGKQMEKAHIMQVLYYIYYLNSLGIKSKAILHYPKLKEIKEIELKENNKEEIKRAIKEIEYIKSLKEPPEPIYQKICKNCAYYELCFIEGHHHHHH | soluble
MSLERIEPGPDTIRVLLTTDNHVGAFENDPIRGDDAWKTFDEITTIAKDKDVDMIIQGGDLFHINKPTKKSMYHVMKSLRSNCMGDRPCELELLSDPAQSLNNGFDEINYEDPNLNISIPVFAISGNHDDATGESLLLALDVLAVTGLINNFGKVKNTEAITVSPILLQKGQTKLALYGMSNVRDERLHRLFRDGGVKFQRPNIQTEDWFNLFVIHQNHAAHTYTSSIPESFLPNFLDFILWGHEHECIPYPVHNPETTFDVLQAGSSVATSLAEGEVADKKIFILNIKGKDYSIEPVELKTVRPFVLREIILLKTDLIPGAASKADVIAYLTDEVEKSIERANKQFSEGHHHHHH | soluble
MSLERLIPIIAPQVPEKPLLNDSLGSGIGCSATLGRSTKFEDNFMCLKQDNVLFVGVFDGHAGHESALISAECFTKILPSFDFTNAIHQKNPEKDEENIQKFDFPKVENHLSPRRNHFRNVKTQENQIFGSQKIETKNIKNTQKIELKNSEKIELENSKGSENLNTKLIKTYLRMAFAQVNDELRNRKVKDGTTAVVVCLFENRKGAVAHVGDSLALLVGQTTSKLLTKMHRPSDKDEFYRMRKRNKSVSSDWKVDGKLSVSRSLGDFWCCGGMFDDADVSFFDLNDDALSIVLGCDGLWDYVDEGTVCNVVRELRDPVKAAKLLQDIAFASGSHDSISVIVVNVEPTEGHHHHHH | soluble
MSLESILITGASGFIGSFIVEEALKRKFGVWAGIRPTSSKKYLKNRKIHFLELDFAHPNELRAQLSGHKGTYNKFDYIIHCAGVTKCPDKNTFDYVNYLQTKYFIDTLKALNMVPKQFIYISTLSVFGPVREKDYSPIEAGDVPMPNTAYGLSKLKAELYIQSIPGFPYVIYRPTGVYGPRELDYFLMAKSIRQHVDFSVGFRRQDLTFVYVKDIVQAIFLGIEKKVTRRAYFLTDGKVYNSRVFSDLIQKELGNPFVIHVKCPLIVLKVISLLAEFIATRSGKSSTLNSDKYKIMKQRNWQCDITPAINELGYAPEYDLEKGVRETIDWYKNEGWEGHHHHHH | soluble
MSLESKPVVFHDVPQDHWAFEAISDLGNAGIIAGYGHGIFGLGDDVTREQVAALIYRSMEGIEEKEEYENPYGDLDEHGSTLFLEEILALTEMGIFQGDEQGNFRPKDTLTRAEMAQVIATAFDLEVKAPHSFNDVPANSWAKDAISAVQSNQIAAGIGQGKFAPEMKVTREQYAQFLYNALTNEHAEEGHHHHHH | soluble
MSLESLAAKVVERLNRAESAAELRFCHDELARELRRCLAPEQMKQLAGDVVCVHEAILRRAFFLAERETMKRSVGIRPPAWCWYVMGSIGRCEPTIWTDQDHGILFNCPEEEEAACYEFIRHMAAVGVDMLHEAGYPYCSGYVMATNKRWAQSVRGWEQQLSSYLDSGWPNDIRFLLIAMDMRPLYGEAELAEKARKALFAAVAKRPPLLARMGEHVQFPPVPLGWLGNVQTERWGPYSGAVHMKQSGYVQLTNALKWLACFAHVPTAGTAERRRALEANGVLTAPLSDAVCEALSVYYSIRLKYSTEAGDGREYVLWRALERTEQKQLKQAMRTAKRLQRFVARRVANIHAEGHHHHHH | soluble
MSLESVKCIFERHPDFASKFRPKNRHMKSTYMTVLLGLIKTMCQLPEELTDDDLDEASVAVSYVENGGLRLDWLEKKLAEVKAKKKKVETGKARLQRAEEELQKLNQKCLEMKAFLEKENADVSEANVPLSFEDVVSMIPLPNLHAKNAGYLVNGEVKIVVEINDLEVIGKLDVSEESEETNQPLKKIKLDDNDAVSFDSLNETSPVKESIDVNGFQVLPSEGHHHHHH | soluble
MSLETFTGIRYETAVERVANGGFTDLPRQIEWRKALAAFQSAPIFGHGWNSFAQQTFLINAEQHNIHDNLLSNLFTHSHNIVLQLLAEMEGHHHHHH | not soluble
MSLETGVTNDAIIIGQSAAMSGPAGKLGQQMNLGAKLYFKSINAAGGIYGRKIELKVLDDFYEPEAAERNTKTLINDTKVFALFGYVGTPTSLAALKVANPAGVPFFAPYSGAMALREPFARNVFHVRASYNDETAAIVQQIRTTGHKRVAVVYNDDSYGAAGLAGVKRALALPENKAVALAVEASVPRNSTTVKAALSKVLPSKADSVVVISTYQTTAALVKEALAEGFTGQFYNVSFVGTKELADALGSAGGGVVVSQVMPFPHSMSSALTRDYEKLLKADGVTSFDYGSMEGYIAARIFVEGLKRAGRDLTREKLITALETMGSTDLGGFAVSFSPTNHVASKFVEMTVINSHGQVIREGHHHHHH | soluble
MSLEVVLWDFDGVIFDSMHLKNEGFRALFQKHGNKNQESLKQFEVYHYQSGGISRNEKIQYFYNEILKTPIAQEEVDALALEFGTIIEQKLFDREHLNSEVMAFIDKHYKNHVFHIASAALHSELQVLCEFLGIIKYFKSVEGSPPNKPKIIANIIQKYAYNPGRMLMIGDSVNDYESAQANEVAFLGYNSKVLKNLVGQNGYQGKYLESFKGFDLQNFIKEGHHHHHH | soluble
MSLFKIRMPETVAEGTRLALRAFSLVVAVDERGGIGDGRSIPWNVPEDMKFFRDVTTKLRGKNVKPSPAKRNAVVMGRKTWDSIPPKFRPLPGRLNVVLSSTLTTQHLLDGLPDEEKRNLHADSIVAVNGGLEQALQLLASPNYTPSIETVYCIGGGSVYAEALRPPCVHLLQAIYRTTIRASESSCSVFFRVPESGTEAAAGIEWQRETISEELTSANGNETKYYFEKLIPRNREEEQYLSLVDRIIREGNVKHDRTGVGTLSIFGAQMRFSLRNNRLPLLTTKRVFWRGVCEELLWFLRGETYAKKLSDKGVHIWDDNGSRAFLDSRGLTEYEEMDLGPVYGFQWRHFGAAYTHHDANYDGQGVDQIKAIVETLKTNPDDRRMLFTAWNPSALPRMALPPCHLLAQFYVSNGELSCMLYQRSCDMGLGVPFNIASYALLTILIAKATGLRPGELVHTLGDAHVYSNHVEPCNEQLKRVPRAFPYLVFRREREFLEDYEEGDMEVIDYAPYPPISMKMAV | soluble
MSLFLNRLSLPKDYFIDTFLYYSDQDIAQISSYLPESNVSANVPGFKKNFVLKVFDHKIKPGETLSHVAARYQITSETLISFNEIKDVRNIKPNSVIKVPNMKGIVYIVKKNDSISSIASAYNVPKVDILDSNNLDNEVLFLGQKLFIPGGRLPKDFLKEVLGETFIYPVQGVITSGYGYRPDPFTGVISFHNGIDIANLANTPIKASREGVVVTAGFNAGGYGKYIVISHSNGFQTLYAHLNSFAVKVGKKVSRGAVIGYMGSTGYSTGNHLHFTIFKNGKTENPMKYEGHHHHHH | not soluble
MSLFRIQLRTMSSKTCKSDYPKEFVSFLNSSHSPYHTVHNIKKHLVSNGFKELSERDSWAGHVAQKGKYFVTRNGSSIIAFAVGGKWEPGNPIAITGAHTDSPALRIKPISKRVSEKYLQVGVETYGGAIWHSWFDKDLGVAGRVFVKDAKTGKSIARLVDLNRPLLKIPTLAIHLDRDVNQKFEFNRETQLLPIGGLQEDKTEAKTEKEINNGEFTSIKTIVQRHHAELLGLIAKELAIDTIEDIEDFELILYDHNASTLGGFNDEFVFSGRLDNLTSCFTSMHGLTLAADTEIDRESGIRLMACFDHEEIGSSSAQGADSNFLPNILERLSILKGDGSDQTKPLFHSAILETSAKSFFLSSDVAHAVHPNYANKYESQHKPLLGGGPVIKINANQRYMTNSPGLVLVKRLAEAAKVPLQLFVVANDSPCGSTIGPILASKTGIRTLDLGNPVLSMHSIRETGGSADLEFQIKLFKEFFERYTSIESEIVVEGHHHHHH | soluble
MSLGAKKEGFQTMVITDNKRENFYKNFSFIDNIYAYASLDEAVSIINGIKDYGILIPHGSLVEYLGKERVDKIETKIFGNKKIFEWEADQKKKMELLRKSNIKIPEIFERPEDVDRLVIVKLNGAKGGKGYFLARNKSEVKEGIQKLIESKMIRDENEVIIQEYVVGVPMYFQFFYSDIINRTEIFGIDIRYETNIDGLRRLPFEYMKELKINPTFVVVGNIPAVARESLLPVALEYANNFVRTTKELVPPGMIGPFCLESIITDNSDIVVFEFSGRIVAGTNLYVNGSPYSWLYWDEPMSIGRRIAREIRVANEKDKLSLVVSEGHHHHHH | not soluble
MSLGDERPDVLLTGLLFYDLVLTGLGKPPTPGEEIWTEGMGVSPGGIANLAVAASRFGLRTSLATVFGDDHYGAYCRGVLAGQEGIDLSLSRTADGWHTPVTVSLAYGHDRALVTHGQDPPYSQDALMGDPPEARTALVHIEAEPHAWLAKAAANGTRIYADVGWDPTQQWSRDLLDQLSLCHAFLPNEAEAMAYTRTDSAMAALGTLTDLVPVAVVTRGGDGAVAVDQTTGEYAEVPALDIDVLDPTGAGDVFGASFVAASLGGWPLAERLRFAVLAAGLSVQRHGGALAAPGWYGVHRWWHSLEDPGLRRAYGFLADRIPADPGPPVRHAPVTPPDATRREGHHHHHH | soluble
MSLGEFVFKGLLQEKGWIENAVVKTNDFGVITSIKSDPERKDGCDYAIPGFQNAHSHAFQYAMAGLAELHSTSKTKNDFWSWRKIMYDLALNITPDQMEDIATMLYKEMLRHGYTHVAEFHYLHHDLSGEKYNNCSEMGERIIAAAKRAGIKLTLVPIFYQNGGFGRKAENEQRRFISSSFNDYKNLVEASISSSKNYEHSSVAYGIHSMRAVSAENIIKLSEQKENGAPFHIHVSEQLKEIEDSVAFLGLRPVDWLSENIDLNPDYHLVHATHLTQNEIESIAKSQANVVLCPSTEGNLGDGIFPLNEFLKHGGKWSIGTDSHVGLNPFEELRILDYGQRLISHNRNTFGNNISGDNGNIAISSALVNGRKAMGIEQTHYFEVGKSFDALIISDQHPLIQTVSLKNLTNTLVYSSDNSMYKGTIVNGDWKIKDGQHADDNIHADFIQTLNALKVREGHHHHHH | soluble

Source: the DeepSol protein solubility set
